Test system: thrombus in the circumflex coronary artery
Assay: Electrically induced coronary thrombus model in dogs, restoration of blood flow
Format: in vivo
Details: infused into a peripheral vein for 30 minutes at 10 microgram/kg/min; mongrel dogs
Method: A thrombus was introduced into the circumflex coronary artery of mongrel dogs by electrical current. Blood flow in the artery was measured by a commercially available electromagnetic flow probe. After stable blood flow for five minutes without electrical current, homogeneous recombinant human tissue plasminogen activator (Genentech) was infused into a peripheral vein for 30 minutes at a dose of 10 microgram/kg/min. In another cohort of animals, pentapeptide 6A was infused intra-arterially proximal to the occlusion at a dose of 5 micromoles/min for 20 min.

B1: tissue plasminogen activator: homogeneous recombinant human tissue plasminogen activator (Genentech) (protein, UniProt P00750 36-562, looked up)
Tissue-type plasminogen …: SYQVICRDEKTQMIYQQHQSWLRPVLRSNRVEYCWCNSGRAQCHSVPVKSCSEPRCFNGGTCQQALYFSDFVCQCPEGFAGKCCEIDTRATCYEDQGISYRGTWSTAESGAECTNWNSSALAQKPYSGRRPDAIRLGLGNHNYCRNPDRDSKPWCYVFKAGKYSSEFCSTPACSEGNSDCYFGNGSAYRGTHSLTESGASCLPWNSMILIGKVYTAQNPSAQALGLGKHNYCRNPDGDAKPWCHVLKNRRLTWEYCDVPSCSTCGLRQYSQPQFRIKGGLFADIASHPWQAAIFAKHRRSPGERFLCGGILISSCWILSAAHCFQERFPPHHLTVILGRTYRVVPGEEEQKFEVEKYIVHKEFDDDTYDNDIALLQLKSDSSRCAQESSVVRTVCLPPADLQLPDWTECELSGYGKHEALSPFYSERLKEAHVRLYPSSRCTSQHLLNRTVTDNMLCAGDTRSGGPQANLHDACQGDSGGPLVCLNDGRMTLVGIISWGLGCGQKDVPGVYTKVTNYLDWIRDNMRP
animals with coronary blood flow restored: 5 of 7
duration reflow persisted: 20.0 ± 10.9 min
peak restored coronary blood flow (mean±SD): 22 ± 12 mL/min
time to flow restoration: 12.3 ± 9.1 min

From patent US4790988A, “Method and compositions for the treatment of thrombotic episodes” (University of Florida, priority 1987, dated 1988)
